Measured values taken from patent US20240016931A1 (JIANGSU HENGRUI PHARMACEUTICALS, published 2024).
Substitutions are numbered along the chain they refer to. Numbers in names are those of the source.

B1: hu119-23 (antibody, human IgG1, kappa, V domains shown)
VH: EVQLVQSGAEVKKPGSSVKVSCKASGFTFSTYNMHWVKHAPGQGLEWIGAIYPGNGETSYNQKFKDRATLTVDKSTSTAYMELSSLRSEDTAVYYCAREDDYGEGYFDVWGQGTTVTVSS
VL: DIVLTQSPATLSLSPGERATLSCRASESVDNSGLSFMHWYQQKPGQPPRLLLYRASNLGSGIPARFSGSGSGTDFTLTISSLEPEDFAVYYCQQINTDPLTFGQGTKLEIKR
notes: IgG1-YTE, kappa
B2: hu119-24 (antibody, human IgG1, kappa)
heavy: EVQLVQSGAEVKKPGSSVKVSCKASGGTFSTYNMHWVRQAPGQGLEWIGAIYPGNGETSYNQKFKDRATLTVDKSTSTAYMELSSLRSEDTAVYYCAREDDYGEGYFDVWGQGTTVTVSSASTKGPSVFPLAPSSKSTSGGTAALGCLVKDYFPEPVTVSWNSGALTSGVHTFPAVLQSSGLYSLSSVVTVPSSSLGTQTYICNVNHKPSNTKVDKKVEPKSCDKTHTCPPCPAPELLGGPSVFLFPPKPKDTLYITREPEVTCVVVDVSHEDPEVKFNWYVDGVEVHNAKTKPREEQYNSTYRVVSVLTVLHQDWLNGKEYKCKVSNKALPAPIEKTISKAKGQPREPQVYTLPPSRDELTKNQVSLTCLVKGFYPSDIAVEWESNGQPENNYKTTPPVLDSDGSFFLYSKLTVDKSRWQQGNVFSCSVMHEALHNHYTQKSLSLSPGK
light: DIVLTQSPATLSLSPGERATLSCRASESVDNSGLSFMHWYQQKPGQPPRLLLYRASNLGSGIPARFSGSGSGTDFTLTISSLEPEDFAVYYCQQINTDPLTFGQGTKLEIKRTVAAPSVFIFPPSDEQLKSGTASVVCLLNNFYPREAKVQWKVDNALQSGNSQESVTEQDSKDSTYSLSSTLTLSKADYEKHKVYACEVTHQGLSSPVTKSFNRGEC
notes: IgG1-YTE, kappa
B3: hu119-25 (antibody, human IgG1, kappa)
heavy: B2 heavy with V2A, G27F
light: B2 light
notes: IgG1-YTE, kappa
B4: hu119-26 (antibody, human IgG1, kappa)
heavy: B2 heavy with S77R
light: B2 light
notes: IgG1-YTE, kappa
B5: hu119-27 (antibody, human IgG1, kappa)
heavy: B2 heavy with V2A, G27F, S77R
light: B2 light
notes: IgG1-YTE, kappa
B6: Ch3 (antibody, human IgG1, kappa, V domains shown)
VH: EVQLQQSGPVLVKPGASVKMSCKASGYTFTDDYMNWVKQSHGKSLEWIGIISPYNGGTSYNQKFKGKATLTVDKSSSTAYMELNSLTSEDSAVYYCAREDYDYDGYAMDHWGQGTSVTVSS
VL: QIVLSQSPAILSASPGEKVTMTCRASSSVSYMHWYQQKPGSSPKPWIYATSNLASGVPARFSGSGSGTSYSLTISRVEAEDAATYYCQQWSSNRTFGGGTKLEIKR
notes: murine variable regions on human IgG1-YTE / kappa; also called chimeric antibody corresponding to mab3
B7: Ch119 (antibody, human IgG1, kappa, V domains shown)
VH: QAYLQQSGAELVRPGASVKMSCKASGFAFTTYNMHWVKHTPGQGLEWIGAIYPGNGETSYNQKFKDRATLTVDKSSRTAYMQLSSLTSEDSAVYFCAREDDYGEGYFDVWGAGTTVTVSS
VL: DIVLTQSPASLAVSLGQRATISCRASESVDNSGLSFMHWYQQKPGQPPRLLLYRASNLGSGIPARFSGSGSGTDFTLTLNPVETDDVATYYCQQINTDPLTFGAGTKLELKR
notes: murine variable regions on human IgG1-YTE / kappa; also called chimeric antibody corresponding to mab119
B8: hu119-02 (antibody, human IgG1, kappa)
heavy: B2 heavy with G27F, I48M, A68V
light: DIVMTQSPDSLAVSLGERATINCRASESVDNSGLSFMHWYQQKPGQPPKLLIYRASNLGSGVPDRFSGSGSGTDFTLTISSLQAEDVAVYYCQQINTDPLTFGQGTKLEIKRTVAAPSVFIFPPSDEQLKSGTASVVCLLNNFYPREAKVQWKVDNALQSGNSQESVTEQDSKDSTYSLSSTLTLSKADYEKHKVYACEVTHQGLSSPVTKSFNRGEC
notes: IgG1-YTE, kappa
B9: hu119-01 (antibody, human IgG1, kappa)
heavy: B2 heavy with I48M, A68V, L70I, V72A
light: B8 light
notes: IgG1-YTE, kappa
B10: hu119-04 (antibody, IgG1)
heavy: B2 heavy with G27F, R38K, Q39H
light: B8 light
notes: IgG1-YTE, kappa
B11: hu119-05 (antibody, human IgG1, kappa)
heavy: B2 heavy with I48M, A68V, L70I, V72A
light: B8 light with M4L
notes: IgG1-YTE, kappa
B12: hu119-06 (antibody, human IgG1, kappa)
heavy: B2 heavy with G27F, I48M, A68V
light: B8 light with M4L
notes: IgG1-YTE, kappa
B13: hu119-08 (antibody, human IgG1, kappa)
heavy: B2 heavy with G27F, R38K, Q39H
light: B8 light with M4L
notes: IgG1-YTE, kappa
B14: hu119-09 (antibody, human IgG1, kappa, V domains shown)
VH: B1 VH with F27G, K38R, H39Q, I48M, A68V, L70I, V72A
VL: DIVMTQSPDSLAVSLGERATINCRASESVDNSGLSFMHWYQQKPGQPPKLLLYRASNLGSGIPDRFSGSGSGTDFTLTISSLQAEDVAVYYCQQINTDPLTFGQGTKLEIKR
notes: IgG1-YTE, kappa
B15: hu119-10 (antibody, human IgG1, kappa, V domains shown)
VH: B1 VH with K38R, H39Q, I48M, A68V
VL: B14 VL
notes: IgG1-YTE, kappa
B16: hu119-12 (antibody, IgG1, V domains shown)
VH: B1 VH
VL: B14 VL
notes: IgG1-YTE, kappa
B17: hu119-28 (antibody, human IgG1, kappa, V domains shown)
VH: B1 VH
VL: B14 VL with M4L, N31S, L52I, I62V
notes: IgG1-YTE, kappa; also called hu119VH3 + hu119VL2-N31S
B18: hu119-29 (antibody, human IgG1, kappa, V domains shown)
VH: B1 VH
VL: B14 VL with M4L, N31Q, L52I, I62V
notes: IgG1-YTE, kappa; also called hu119VH3 + hu119VL2-N31Q
B19: Ch179 (antibody, human IgG1, kappa, V domains shown)
VH: QVQLQQSGAELVRPGTSVKVSCKASGYAFTNYLIEWVKQRPGQGLEWIGVIDPGNGDTNYNENFKGKATLTADKSSSTAYIELSRLTSEDSAVYFCAREDNTGTAFDYWGQGTTLTVSS
VL: SIVMTQTPKFLLVSAGDRVTISCKASQSVSSDVTWYQQKPGQSPKLLIYYVSNHYTGVPDRFTGSGYGTDFTFTISSVQAEDLAVYFCQQHHRFPLTFGAGTKLELKR
notes: murine variable regions on human IgG1-YTE / kappa; also called chimeric antibody corresponding to mab179
B20: hu179-06 (antibody, human IgG1, kappa, V domains shown)
VH: EVQLVQSGAEVKKPGSSVKVSCKASGYTFSNYLIEWVRQAPGQGLEWIGVIDPGNGDTNYNENFKGRATLTADKSTSTAYIELSSLRSEDTAVYYCAREDNTGTAFDYWGQGTTVTVSS
VL: DIVMTQSPDSLAVSLGERATINCKASQSVSSDVTWYQQKPGQSPKLLIYYVSNHYTGVPDRFSGSGSGTDFTLTISSLQAEDVAVYYCQQHHRFPLTFGQGTKLEIKR
notes: IgG1-YTE, kappa
B21: hu179-01 (antibody, human IgG1, kappa, V domains shown)
VH: B20 VH with Y27G, I48M, A68V, L70I, I81M
VL: B20 VL with S43P
notes: IgG1-YTE, kappa
B22: hu179-02 (antibody, human IgG1, kappa, V domains shown)
VH: B20 VH with Y27G, I48M, A68V, L70I, I81M
VL: B20 VL
notes: IgG1-YTE, kappa
B23: hu179-03 (antibody, human IgG1, kappa, V domains shown)
VH: B20 VH with I48M, A68V, I81M
VL: B20 VL with S43P
notes: IgG1-YTE, kappa
B24: hu179-04 (antibody, human IgG1, kappa, V domains shown)
VH: B20 VH with I48M, A68V, I81M
VL: B20 VL
notes: IgG1-YTE, kappa
B25: hu179-05 (antibody, human IgG1, kappa, V domains shown)
VH: B20 VH
VL: B20 VL with S43P
notes: IgG1-YTE, kappa
B26: hu179-07 (antibody, human IgG1, kappa, V domains shown)
VH: B20 VH
VL: B20 VL with L73F
notes: IgG1-YTE, kappa
B27: hu179-12 (antibody, human IgG1, kappa, V domains shown)
VH: B20 VH with R38K, R67K, S85R
VL: B20 VL with S43P
notes: IgG1-YTE, kappa
B28: hu179-13 (antibody, human IgG1, kappa, V domains shown)
VH: B20 VH with R38K, R67K, S85R
VL: B20 VL
notes: IgG1-YTE, kappa
B29: hu179-14 (antibody, human IgG1, kappa, V domains shown)
VH: B20 VH with T28A, I81M
VL: B20 VL with L73F
notes: IgG1-YTE, kappa
B30: hu179-15 (antibody, human IgG1, kappa, V domains shown)
VH: B20 VH with T28A, I81M
VL: B20 VL with D1S
notes: IgG1-YTE, kappa
B31: hu179-20 (antibody, human IgG1, kappa, V domains shown)
VH: B20 VH with Y27G, I48M, N55Q, A68V, L70I, I81M
VL: B20 VL
notes: IgG1-YTE, kappa; also called hu179VH1-N55Q + hu179VL2
B32: hu179-21 (antibody, human IgG1, kappa, V domains shown)
VH: B20 VH with Y27G, I48M, N55V, A68V, L70I, I81M
VL: B20 VL
notes: IgG1-YTE, kappa; also called hu179VH1-N55V + hu179VL2
B33: hu179-22 (antibody, human IgG1, kappa, V domains shown)
VH: B20 VH with Y27G, I48M, G56V, A68V, L70I, I81M
VL: B20 VL
notes: IgG1-YTE, kappa; also called hu179VH1-G56V + hu179VL2

Molecular target: T1, His-tagged human TSLP antigen (huTSLP-his) (human)
T1 construct: Secreted from HEK293E and purified on nickel; whole entry named; also called Human TSLP-his
Test: ELISA, coated huTSLP-his;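 also: binding of antibodies to plate-bound TSLP read as absorbance at 450 nm after TMB colour development, EC50 derived from binding curves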
Experimental: The plate was incubated at 4° C. overnight. After the liquid was discarded, 5% skim milk (skim milk powder from Brightdairy) blocking solution diluted with PBS was added at 200 μL/well, and the plate was incubated in an incubator at 37° C. for 2 h for blocking. After the blocking, the blocking solution was discarded, and the plate was washed 3 times with a PBST buffer (PBS containing 0.1% (v/v) tween-20, pH 7.4). […] After the incubation, the plate was washed 3 times with PBST. […] After the plate was washed 6 times with PBST, a TMB chromogenic substrate (KPL, 52-00-03) was added at 50 μL/well, and the plate was incubated at room temperature for 10-15 min. Then, 1 M H₂SO₄ was added at 50 μL/well to stop the reaction. The absorbance at 450 nm was read with a NOVOStar microplate reader, and the EC₅₀ values for the binding of the TSLP antibodies to TSLP were calculated.

EC50	Binder
0.34 nM	B1
0.345 nM	B2
0.357 nM	B3
0.378 nM	B4
0.335 nM	B5
0.493 nM	B6
0.851 nM	B7
0.194 nM	B8
0.107 nM	B9
0.188 nM	B10
0.144 nM	B11
0.221 nM	B12
0.202 nM	B13
0.149 nM	B14
0.233 nM	B15
0.203 nM	B16
0.265 nM	B17

EC50	Binder
0.273 nM	B18
0.202 nM	B19
0.219 nM	B20
0.125 nM	B21
0.17 nM	B22
0.138 nM	B23
0.189 nM	B24
0.142 nM	B25
0.448 nM	B26
0.144 nM	B27
0.201 nM	B28
0.205 nM	B29
0.203 nM	B30
0.708 nM	B31
0.978 nM	B32
0.752 nM	B33
